{
  "source": "paper PMC12259950",
  "target": "4-1BB receptor (human) (UniProt Q07011)",
  "sequence (Q07011 24-255)": "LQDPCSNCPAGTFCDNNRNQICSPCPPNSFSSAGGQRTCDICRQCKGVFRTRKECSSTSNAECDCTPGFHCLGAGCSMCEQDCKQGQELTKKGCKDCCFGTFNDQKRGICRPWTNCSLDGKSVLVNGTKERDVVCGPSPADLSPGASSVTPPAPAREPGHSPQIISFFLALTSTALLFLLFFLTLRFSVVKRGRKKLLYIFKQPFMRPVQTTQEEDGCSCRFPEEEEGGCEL",
  "assay": "ELISA; antigen (4-1BB 0.5 µg/mL in carbonate buffer; BSA or S100P for cross-reactivity) adsorbed on the plate, 37 °C 1 h; blocked with 1% milk powder; culture fluid with VHH mixed 1:1 with 2% milk powder, 1 h 37 °C; detected by 9E10 anti-myc and an HRP conjugate, TMB, 450 nm; 2 technical …",
  "data": [
    {"binder": "VHH_11 (VHH) VHH: QVQLVESGGGLVQPGGSLRLSCAASGYSYYYYSMGWFRQAPGQGTEFVAAISSYYYSSYYADSVKGRFTISRDNSKNTLYLQMNSLRAEDTAVYYCAASYYSGSYYSGFDYWGQGTQVTVS", "values": [
      {"measurement": "ELISA signal intensity, fold lower than the positive control", "result": 10, "unit": "fold"}
    ]}
  ]
}
